Laboratory results published in PMC12803953, “The MO25 protein Pmo25 functions in contractile ring stability and Sid2 localization during cytokinesis” (iScience, 2025).

How the values were obtained:
[1] = biological target: T1, MBP-Ync13-full length-6His (S. pombe, UniProt O13683 1-1237); assay: pull-down; Kd by depletion of the supernatant: various concentrations of MBP-Ync13 proteins immobilised on amylose beads with a fixed low concentration of Pmo25-(19–329)-6His, 1 h at 4°C; supernatant on SDS-PAGE, Coomassie Blue; one site binding equation; conditions: both partners purified
T1 construct: cloned in pET21a-MBP between the MBP-TEV-GGSGGS fragment and the C-terminal 6xHis tag; A TEV site and a GGSGGS linker stand between MBP and Ync13; also called MBP-tagged full length Ync13; not shown: MBP, N-terminal, kept; His6, C-terminal, kept
T1 sequence (looked up): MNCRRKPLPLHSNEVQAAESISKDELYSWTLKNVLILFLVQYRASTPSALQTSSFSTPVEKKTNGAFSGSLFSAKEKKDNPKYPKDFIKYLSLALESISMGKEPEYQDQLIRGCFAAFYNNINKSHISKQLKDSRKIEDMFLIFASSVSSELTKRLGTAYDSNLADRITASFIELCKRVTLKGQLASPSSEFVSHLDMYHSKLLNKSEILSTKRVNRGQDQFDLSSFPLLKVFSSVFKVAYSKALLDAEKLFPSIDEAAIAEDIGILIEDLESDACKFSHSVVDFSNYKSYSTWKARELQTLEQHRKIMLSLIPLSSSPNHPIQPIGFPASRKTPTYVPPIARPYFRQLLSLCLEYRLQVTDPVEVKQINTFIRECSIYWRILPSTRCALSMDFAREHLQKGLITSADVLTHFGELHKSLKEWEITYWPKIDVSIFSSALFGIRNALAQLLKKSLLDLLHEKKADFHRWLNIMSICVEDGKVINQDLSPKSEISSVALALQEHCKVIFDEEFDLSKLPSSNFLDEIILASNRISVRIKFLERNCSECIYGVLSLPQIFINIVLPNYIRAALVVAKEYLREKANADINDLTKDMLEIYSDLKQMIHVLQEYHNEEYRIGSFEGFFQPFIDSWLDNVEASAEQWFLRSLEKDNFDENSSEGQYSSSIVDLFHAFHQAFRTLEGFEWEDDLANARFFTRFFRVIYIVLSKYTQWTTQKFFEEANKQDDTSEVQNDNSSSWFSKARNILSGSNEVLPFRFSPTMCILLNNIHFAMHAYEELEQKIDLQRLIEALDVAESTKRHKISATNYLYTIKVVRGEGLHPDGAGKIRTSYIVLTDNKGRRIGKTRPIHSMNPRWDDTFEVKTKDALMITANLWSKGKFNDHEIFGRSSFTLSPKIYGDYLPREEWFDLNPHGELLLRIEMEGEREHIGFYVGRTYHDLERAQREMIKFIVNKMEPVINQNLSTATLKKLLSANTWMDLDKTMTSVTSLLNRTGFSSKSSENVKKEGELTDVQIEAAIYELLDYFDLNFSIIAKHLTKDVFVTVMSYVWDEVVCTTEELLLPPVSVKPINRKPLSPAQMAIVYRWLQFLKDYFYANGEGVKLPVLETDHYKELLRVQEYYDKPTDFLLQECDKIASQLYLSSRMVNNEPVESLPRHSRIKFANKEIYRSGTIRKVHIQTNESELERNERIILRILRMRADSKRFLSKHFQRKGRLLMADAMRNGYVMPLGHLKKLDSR

[2] = biological target: T2, MBP-Ync13-(591–1130)-6His (S. pombe, UniProt O13683 591-1130); assay: as above; conditions: both partners purified
T2 construct: The cloning of this fragment is not described; not shown: MBP, N-terminal, kept; His6, C-terminal, kept
T2 sequence (looked up): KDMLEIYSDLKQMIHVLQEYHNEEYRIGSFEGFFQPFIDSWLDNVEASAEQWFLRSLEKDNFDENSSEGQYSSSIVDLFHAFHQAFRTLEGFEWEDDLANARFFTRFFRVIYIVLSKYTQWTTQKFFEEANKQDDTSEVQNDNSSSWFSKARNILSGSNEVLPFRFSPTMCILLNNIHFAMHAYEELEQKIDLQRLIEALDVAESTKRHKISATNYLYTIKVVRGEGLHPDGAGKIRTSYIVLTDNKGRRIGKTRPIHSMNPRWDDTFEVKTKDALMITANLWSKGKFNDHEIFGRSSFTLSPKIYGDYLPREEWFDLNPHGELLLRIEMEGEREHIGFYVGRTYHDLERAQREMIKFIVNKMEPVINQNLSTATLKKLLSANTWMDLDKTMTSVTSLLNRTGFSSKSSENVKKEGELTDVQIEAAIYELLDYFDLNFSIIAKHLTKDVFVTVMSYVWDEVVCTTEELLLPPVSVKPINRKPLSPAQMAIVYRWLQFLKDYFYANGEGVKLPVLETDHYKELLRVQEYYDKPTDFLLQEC

B1: Pmo25-(19–329)-6His (domain or fragment, S. pombe, UniProt Q9P7Q8 19-329, looked up)
chain: LCDNLPKLEINNDKKKSFEEVSKCLQNLRVSLCGTAEVEPDADLVSDLSFQIYQSNLPFLLVRYLPKLEFESKKDTGLIFSALLRRHVASRYPTVDYMLAHPQIFPVLVSYYRYQEVAFTAGSILRECSRHEALNEVLLNSRDFWTFFSLIQASSFDMASDAFSTFKSILLNHKSQVAEFISYHFDEFFKQYTVLLKSENYVTKRQSLKLLGEILLNRANRSVMTRYISSAENLKLMMILLRDKSKNIQFEAFHVFKLFVANPEKSEEVIEILRRNKSKLISYLSAFHTDRKNDEQFNDERAFVIKQIERL
notes: in pET21a between the N-terminal T7 tag and the C-terminal 6xHis tag; not shown: His6, C-terminal, kept
B1 gave a Kd [1] of 490 nM and a Kd [2] of 620 nM.
